Common to all, as to assay: ITC
Test [1] has as its target full-length human eRF3a (GSPT1) (human).
The target is the same in test [2]. This is another data set of the same source.
Test [3] addresses eRF1:eRF3 complex (human) (UniProt P62495).

The term Kd denotes the concentration at which binding is half-saturated. The low end stands for tighter binding, the high end for weaker binding.

Where two headings read alike, the source gives them in different places.

In test [1], “human 6His eRF1 (from UniProt P62495 1-437) (natural protein)” yielded a Ka of 1.1e+06 M⁻¹ and a dH of -10.8 kcal/mol. Moreover, in test [2], the Ka came out at 4.4e+06 M⁻¹ and the dH was -6.1 kcal/mol.

For the substance “human 6His cytoplasmic poly(A)-binding protein (PABP) (from UniProt P11940 1-636) (natural protein)”, in test [3], the Kd came to 700 nM, the dH was -26.3 kcal/mol and the stoichiometry N (PABP per eRF3) worked out at 0.71. In test [2], this substance came in with a Kd of 700 nM, a dH of -30.3 kcal/mol and a stoichiometry N (PABP per eRF3) of 0.5.

Source of the values: paper PMC2811017.
